Source: US20260242735A1 (UNIVERSIT T BASEL, published 2026)

Key:
human CD33 S128A = human CD33 S128A (human, UniProt P20138 18-364); assay: flow cytometry on HEK293-T, alanine scan
Description: (§1) An alanine scan on human CD33 was performed to the determine the residues on CD33 that are involved in binding to the antibodies investigated. […] Briefly, a mutation library of CD33 was created by high-throughput, site-directed mutagenesis. Each residue was individually mutated to alanine, with alanine codons mutated to serine. The mutant library was arrayed in 384-well microplates and transiently transfected into HEK293-T. Following transfection, cells were incubated with the indicated antibodies (IgG or Fab) at concentrations pre-determined using an independent immunofluorescence titration curve on wild type CD33. […] Binding of each antibody to each mutant clone was determined in duplicates. For each point, background fluorescence was subtracted from the raw data, which were then normalized to antibody reactivity with wild type CD33.
(§2) Critical residues for antibody binding (outlined in dark grey) were residues whose mutations led to a binding of the test Abs of less than 20%. Additional secondary residues (outlined in light grey) were identified that led to a binding of the test Abs of between 20 and 40% as compared to the wild type CD33.

human CD33 D140A = human CD33 D140A (human, UniProt P20138 18-364); assay: flow cytometry on HEK293-T, alanine scan
Description: as §1, §2

human CD33 E121A = human CD33 E121A (human, UniProt P20138 18-364); assay: flow cytometry on HEK293-T, alanine scan
Description: as §1, §2

human CD33 G94A = human CD33 G94A (human, UniProt P20138 18-364); assay: flow cytometry on HEK293-T, alanine scan
Sequence of human CD33 G94A (P20138 18-364 G94A limits assumed): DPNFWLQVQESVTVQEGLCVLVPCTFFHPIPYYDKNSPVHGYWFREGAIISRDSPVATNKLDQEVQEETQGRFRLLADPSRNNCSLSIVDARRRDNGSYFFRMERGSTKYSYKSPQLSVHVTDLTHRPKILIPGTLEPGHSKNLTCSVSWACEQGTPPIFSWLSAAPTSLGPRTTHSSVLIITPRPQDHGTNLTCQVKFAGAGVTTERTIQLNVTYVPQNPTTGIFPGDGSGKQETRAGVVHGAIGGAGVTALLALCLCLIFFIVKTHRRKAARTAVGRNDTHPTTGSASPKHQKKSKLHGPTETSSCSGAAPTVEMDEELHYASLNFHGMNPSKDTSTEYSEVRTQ
Description: as §1, §2

human CD33 N113A = human CD33 N113A (human, UniProt P20138 18-364); assay: flow cytometry on HEK293-T, alanine scan
Description: as §1, §2

human CD33 H137A = human CD33 H137A (human, UniProt P20138 18-364); assay: flow cytometry on HEK293-T, alanine scan
Description: as §1, §2

human CD33 A108S = human CD33 A108S (human, UniProt P20138 18-364); assay: flow cytometry on HEK293-T, alanine scan
Sequence of human CD33 A108S (P20138 18-364 A108S limits assumed): as the sequence (P20138 18-364 G94A limits assumed) above, with A77G, A91S counted along it
Description: as §1, §2

human CD33 I105A = human CD33 I105A (human, UniProt P20138 18-364); assay: flow cytometry on HEK293-T, alanine scan
Sequence of human CD33 I105A (P20138 18-364 I105A limits assumed): as the sequence (P20138 18-364 G94A limits assumed) above, with A77G, I88A counted along it
Description: as §1, §2

human CD33 G114A = human CD33 G114A (human, UniProt P20138 18-364); assay: flow cytometry on HEK293-T, alanine scan
Description: as §1, §2

human CD33 K146A = human CD33 K146A (human, UniProt P20138 18-364); assay: flow cytometry on HEK293-T, alanine scan
Description: as §1, §2

human CD33 H143A = human CD33 H143A (human, UniProt P20138 18-364); assay: flow cytometry on HEK293-T, alanine scan
Sequence of human CD33 H143A (P20138 18-364 H143A limits assumed): as the sequence (P20138 18-364 G94A limits assumed) above, with A77G, H126A counted along it
Description: as §1, §2

human CD33 S164A = human CD33 S164A (human, UniProt P20138 18-364); assay: flow cytometry on HEK293-T, alanine scan
Description: as §1, §2

human CD33 I149A = human CD33 I149A (human, UniProt P20138 18-364); assay: flow cytometry on HEK293-T, alanine scan
Sequence of human CD33 I149A (P20138 18-364 I149A limits assumed): as the sequence (P20138 18-364 G94A limits assumed) above, with A77G, I132A counted along it
Description: as §1, §2

human CD33 Y127A = human CD33 Y127A (human, UniProt P20138 18-364); assay: flow cytometry on HEK293-T, alanine scan
Description: as §1, §2

human CD33 L161A = human CD33 L161A (human, UniProt P20138 18-364); assay: flow cytometry on HEK293-T, alanine scan
Description: as §1, §2

human CD33 Y116A = human CD33 Y116A (human, UniProt P20138 18-364); assay: flow cytometry on HEK293-T, alanine scan
Description: as §1, §2

human CD33 R98A = human CD33 R98A (human, UniProt P20138 18-364); assay: flow cytometry on HEK293-T, alanine scan
Sequence of human CD33 R98A (P20138 18-364 R98A limits assumed): as the sequence (P20138 18-364 G94A limits assumed) above, with A77G, R81A counted along it
Description: as §1, §2

human CD33 V136A = human CD33 V136A (human, UniProt P20138 18-364); assay: flow cytometry on HEK293-T, alanine scan
Description: as §1, §2

human CD33 S158A = human CD33 S158A (human, UniProt P20138 18-364); assay: flow cytometry on HEK293-T, alanine scan
Sequence of human CD33 S158A (P20138 18-364 S158A limits assumed): as the sequence (P20138 18-364 G94A limits assumed) above, with A77G, S141A counted along it
Description: as §1, §2

human CD33 F118A = human CD33 F118A (human, UniProt P20138 18-364); assay: flow cytometry on HEK293-T, alanine scan
Description: as §1, §2

human CD33 C163A = human CD33 C163A (human, UniProt P20138 18-364); assay: flow cytometry on HEK293-T, alanine scan
Description: as §1, §2

human CD33 N99A = human CD33 N99A (human, UniProt P20138 18-364); assay: flow cytometry on HEK293-T, alanine scan
Description: as §1, §2

human CD33 T139A = human CD33 T139A (human, UniProt P20138 18-364); assay: flow cytometry on HEK293-T, alanine scan
Description: as §1, §2

human CD33 R144A = human CD33 R144A (human, UniProt P20138 18-364); assay: flow cytometry on HEK293-T, alanine scan
Description: as §1, §2

human CD33 E154A = human CD33 E154A (human, UniProt P20138 18-364); assay: flow cytometry on HEK293-T, alanine scan
Description: as §1, §2

human CD33 L141A = human CD33 L141A (human, UniProt P20138 18-364); assay: flow cytometry on HEK293-T, alanine scan
Description: as §1, §2

human CD33 S131A = human CD33 S131A (human, UniProt P20138 18-364); assay: flow cytometry on HEK293-T, alanine scan
Sequence of human CD33 S131A (P20138 18-364 S131A limits assumed): as the sequence (P20138 18-364 G94A limits assumed) above, with A77G, S114A counted along it
Description: as §1, §2

human CD33 K159A = human CD33 K159A (human, UniProt P20138 18-364); assay: flow cytometry on HEK293-T, alanine scan
Description: as §1, §2

human CD33 N100A = human CD33 N100A (human, UniProt P20138 18-364); assay: flow cytometry on HEK293-T, alanine scan
Description: as §1, §2

human CD33 S102A = human CD33 S102A (human, UniProt P20138 18-364); assay: flow cytometry on HEK293-T, alanine scan
Description: as §1, §2

human CD33 L148A = human CD33 L148A (human, UniProt P20138 18-364); assay: flow cytometry on HEK293-T, alanine scan
Description: as §1, §2

human CD33 G151A = human CD33 G151A (human, UniProt P20138 18-364); assay: flow cytometry on HEK293-T, alanine scan
Sequence of human CD33 G151A (P20138 18-364 G151A limits assumed): as the sequence (P20138 18-364 G94A limits assumed) above, with A77G, G134A counted along it
Description: as §1, §2

human CD33 W22R = human CD33 W22R (human, UniProt P20138 18-364); assay: flow cytometry, mutant on cells, IgG
Sequence of human CD33 W22R (P20138 18-364 W22R limits assumed): as the sequence (P20138 18-364 G94A limits assumed) above, with W5R, A77G counted along it
Description: as §1
(§3) Antibodies were screened for binding to the human CD33 variants in IgG format. […] For each mutation, background fluorescence was subtracted from the raw data, which were then normalized to antibody reactivity with wild-type CD33.

human CD33 N20T = human CD33 N20T (human, UniProt P20138 18-364); assay: flow cytometry, mutant on cells, IgG
Sequence of human CD33 N20T (P20138 18-364 N20T limits assumed): as the sequence (P20138 18-364 G94A limits assumed) above, with N3T, A77G counted along it
Description: as §1, §3

human CD33 P46D = human CD33 P46D (human, UniProt P20138 18-364); assay: flow cytometry, mutant on cells, IgG
Sequence of human CD33 P46D (P20138 18-364 P46D limits assumed): as the sequence (P20138 18-364 G94A limits assumed) above, with P29D, A77G counted along it
Description: as §1, §3

human CD33 W22T = human CD33 W22T (human, UniProt P20138 18-364); assay: flow cytometry, mutant on cells, IgG
Sequence of human CD33 W22T (P20138 18-364 W22T limits assumed): as the sequence (P20138 18-364 G94A limits assumed) above, with W5T, A77G counted along it
Description: as §1, §3

Sequence of human CD33 S128A (P20138 18-364 S128A limits assumed): as the sequence (P20138 18-364 G94A limits assumed) above, with A77G, S111A counted along it

Binder	Mean % WT Binding (human CD33 S128A) [% WT binding]	Mean % WT Binding (human CD33 D140A) [% WT binding]	Mean % WT Binding (human CD33 E121A) [% WT binding]	Mean % WT Binding (human CD33 G94A) [% WT binding]	Mean % WT Binding (human CD33 N113A) [% WT binding]	Mean % WT Binding (human CD33 H137A) [% WT binding]	Mean % WT Binding (human CD33 A108S) [% WT binding]	Mean % WT Binding (human CD33 I105A) [% WT binding]	Mean % WT Binding (human CD33 G114A) [% WT binding]	Mean % WT Binding (human CD33 K146A) [% WT binding]	Mean % WT Binding (human CD33 H143A) [% WT binding]	Mean % WT Binding (human CD33 S164A) [% WT binding]	Mean % WT Binding (human CD33 I149A) [% WT binding]	Mean % WT Binding (human CD33 Y127A) [% WT binding]	Mean % WT Binding (human CD33 L161A) [% WT binding]	Mean % WT Binding (human CD33 Y116A) [% WT binding]	Mean % WT Binding (human CD33 W22R) [% WT binding]	Mean % WT Binding (human CD33 N20T) [% WT binding]	Mean % WT Binding (human CD33 P46D) [% WT binding]	Mean % WT Binding (human CD33 W22T) [% WT binding]	other results
Refmab #1 (antibody, V domains shown, The alanine scan used IgG or Fab; also called hP67.6) VH: EVQLVQSGAEVKKPGSSVKVSCKASGYTITDSNIHWVRQAPGQSLEWIGYIYPYNGGTDYNQKFKNRATLTVDNPTNTAYMELSSLRSEDTAFYYCVNGNPWLAYWGQGTLVTVSS VL: DIQLTQSPSTLSASVGDRVTITCRASESLDNYGIRFLTWFQQKPGKAPKLLMYAASNQGSGVPSRFSGSGSGTEFTLTISSLQPDDFATYYCQQTKEVPWSFGQGTKVEVK	118	88.7	87.7	88.3	96	83.8	85.3	31.5	96.9	78.5	88.8	101	87.5	92.6	87	0.9					Mean % WT Binding (human CD33 R98A): 99.1 % WT binding; Mean % WT Binding (human CD33 V136A): 64.2 % WT binding; Mean % WT Binding (human CD33 S158A): 87.1 % WT binding; Mean % WT Binding (human CD33 F118A): 0.1 % WT binding; Mean % WT Binding (human CD33 C163A): 84.6 % WT binding; Mean % WT Binding (human CD33 N99A): 80.2 % WT binding; Mean % WT Binding (human CD33 T139A): 89.9 % WT binding; Mean % WT Binding (human CD33 R144A): 110 % WT binding; Mean % WT Binding (human CD33 E154A): 88 % WT binding; Mean % WT Binding (human CD33 L141A): 103 % WT binding; Mean % WT Binding (human CD33 S131A): 85.9 % WT binding; Mean % WT Binding (human CD33 K159A): 119 % WT binding; Mean % WT Binding (human CD33 N100A): 94.8 % WT binding; Mean % WT Binding (human CD33 S102A): 85.8 % WT binding; Mean % WT Binding (human CD33 L148A): 83.1 % WT binding; Mean % WT Binding (human CD33 G151A): 81.1 % WT binding
Refmab #1 (antibody, human IgG1, V domains shown, Tested in IgG format; human IgG1 (Absolute Antibody hP67.6, Cat. No. Ab00283-10.0); also called hP67.6) VH: EVQLVQSGAEVKKPGSSVKVSCKASGYTITDSNIHWVRQAPGQSLEWIGYIYPYNGGTDYNQKFKNRATLTVDNPTNTAYMELSSLRSEDTAFYYCVNGNPWLAYWGQGTLVTVSS VL: DIQLTQSPSTLSASVGDRVTITCRASESLDNYGIRFLTWFQQKPGKAPKLLMYAASNQGSGVPSRFSGSGSGTEFTLTISSLQPDDFATYYCQQTKEVPWSFGQGTKVEVK																	7.4	6.9	0.6	6.2	
Refmab #3 (antibody, human IgG1, V domains shown, Tested in IgG format; human IgG1 Fc silent (PG-LALA)) VH: QVQLVQSGAEVKKPGSSVKVSCKASGYTFTDYNMHWVRQAPGQGLEWIGYIYPYNGGTGYNQKFKSKATITADESTNTAYMELSSLRSEDTAVYYCARGRPAMDYWGQGTLVTVSS VL: DIQMTQSPSSLSASVGDRVTITCRASESVDNYGISFMNWFQQKPGKAPKLLIYAASNQGSGVPSRFSGSGSGTDFTLTISSLQPDDFATYYCQQSKEVPWTFGQGTKVEIK																	0.9	2.2	0.6	1.3	
Refmab #4 (antibody, human IgG1, V domains shown, Tested in IgG format; human IgG1 Fc silent (PG-LALA)) VH: QVQLVQSGAEVKKPGESVKVSCKASGYTFTNYGMNWVKQAPGQGLEWMGWINTYTGEPTYADKFQGRVTMTTDTSTSTAYMEIRNLGGDDTAVYYCARWSWSDGYYVYFDYWGQGTSVTVSS VL: DIVMTQSPDSLTVSLGERTTINCKSSQSVLDSSTNKNSLAWYQQKPGQPPKLLLSWASTRESGIPDRFSGSGSGTDFTLTIDSPQPEDSATYYCQQSAHFPITFGQGTRLEIK																	114	92.1	110	103	
Refmab #2 (antibody, V domains shown, The alanine scan used IgG or Fab) VH: QVQLVQSGAEVKKPGSSVKVSCKASGGTFSDYAISWVRQAPGQGLEWMGRIIPILGVADYAQKFQGRVTITADKSTRTAYMELSSLRSEDTAVYYCARNWADAFDIWGQGTMVTVSS VL: DIQLTQSPSSLSASVGDRVTITCRASQGISSVLAWYQQKPGKAPKLLIYDASSLESGVPSRFSGSGSGTDFTLTISSLQPEDFATYYCQQFDSSITFGQGTKLEIK	140	109	109	108	91	120	104	43.7	116	115	104	117	116	146	114	0.7					Mean % WT Binding (human CD33 R98A): 122 % WT binding; Mean % WT Binding (human CD33 V136A): 99.8 % WT binding; Mean % WT Binding (human CD33 S158A): 111 % WT binding; Mean % WT Binding (human CD33 F118A): 0.6 % WT binding; Mean % WT Binding (human CD33 C163A): 97.7 % WT binding; Mean % WT Binding (human CD33 N99A): 56.8 % WT binding; Mean % WT Binding (human CD33 T139A): 123 % WT binding; Mean % WT Binding (human CD33 R144A): 112 % WT binding; Mean % WT Binding (human CD33 E154A): 112 % WT binding; Mean % WT Binding (human CD33 L141A): 113 % WT binding; Mean % WT Binding (human CD33 S131A): 123 % WT binding; Mean % WT Binding (human CD33 K159A): 134 % WT binding; Mean % WT Binding (human CD33 N100A): 97 % WT binding; Mean % WT Binding (human CD33 S102A): 89.6 % WT binding; Mean % WT Binding (human CD33 L148A): 119 % WT binding; Mean % WT Binding (human CD33 G151A): 132 % WT binding
Refmab #2 (antibody, human IgG1, V domains shown, Tested in IgG format; human IgG1 Fc silent (PG-LALA)) VH: QVQLVQSGAEVKKPGSSVKVSCKASGGTFSDYAISWVRQAPGQGLEWMGRIIPILGVADYAQKFQGRVTITADKSTRTAYMELSSLRSEDTAVYYCARNWADAFDIWGQGTMVTVSS VL: DIQLTQSPSSLSASVGDRVTITCRASQGISSVLAWYQQKPGKAPKLLIYDASSLESGVPSRFSGSGSGTDFTLTISSLQPEDFATYYCQQFDSSITFGQGTKLEIK																	115	116	100	103	
